The source of these data is patent US5763571A, “Inhibiting protein interactions” (The General Hospital Corporation, priority 1995, dated 1998).

This assay concerns the target T1, Raf(1-257) (Homo sapiens, UniProt P04049).
T1 construct: expressed in transfected cells; host or cells: yeast strain GGY1::171, plasmid pMA424
As to the kind of experiment: Yeast two-hybrid GAL4/lacZ interaction with Raf(1-257). The class given is cell-based. To be noted: X-gal plates. The method, then: Detection of protein-protein interactions using the two-hybrid system in yeast was carried out as follows. The vector pMA424 (Chien C. T., Bartel P. L., Sternglanz, R., Fields, S., Proc. Natl. Acad. Sci. U.S.A. 88, 9578-9582 (1991)) containing either Raf(1-257) or Raf(1-257, C168 →S) DNA sequences fused in frame with the sequences encoding GAL4 (1-147), was cotransformed into yeast together with the pACTII vector containing no insert as a control, or DNA sequences encoding V12GrasH, V12GrasHΔCT, murine rap1b, or rap1bΔCT fused in frame with the GAL4 transactivation domain II. […]
The DNA sequences encoding Raf(1-257) and Raf(1-257, C168 →S) were prepared by the PCR using the plasmids RSV-C4 and RSV-PM17 (Bruder, J. T., Heidecker, G. & Rapp, U.R. Genes Dev. 6, 545-556 (1992)) respectively as templates. […] The reading frame and the C168 →S mutation were verified by DNA sequencing. […] Transformants were grown on SDHis-Leu-plates as in (Durfee, T. et al. Genes Develop. 7, 555-569 (1993); Chien C. T., Bartel P. L., Sternglanz, R., Fields, S., Proc. Natl. Acad. Sci. U.S.A. 88, 9578-9582 (1991)) for 3 days before replica plating to X-gal containing plates, which in turn were scored for blue colonies 72 hours later.
Ras effector domain mutants which impair the interaction between V12GrasHΔCT and Raf(1-257) were analyzed as follows. […]

B1: V12Grap-1b: Rap 1b low molecular weight GTP binding protein variant, GAL4 fusion (protein)
chain: ANFNQSGNIADSSLSFTFTNSSNGPNLITTQTNSQALSQPIASSNVHDNFMNNEITASKIDDGNNSKPLSPGWTDQTAYNAFGITTGMFNTTTMDDVYNYLFDDEDTPPNPKKEMREYKLVVLGSVGVGKSALTVQFVQGIFVEKYDPTIEDSYRKQVEVDAQQCMLEILDTAGTEQFTAMRDLYMKNGQGFALVYSITAQSTFNDLQDLREQILRVKDTDDVPMILVGNKCDLEDERVVGKEQGQNLARQWNNCAFLESSAKSKINVNEIFYDLVRQINRKTPVPGKARKKSSCQLL
As for B1, the “lacZ expression on coexpression with wild-type Raf(1-257) (in words)” value was “interact strongly”.

B2: V12Grap-1bΔCT: V12Grap-1b lacking the carboxyterminal 4 amino acids (protein)
chain: ANFNQSGNIADSSLSFTFTNSSNGPNLITTQTNSQALSQPIASSNVHDNFMNNEITASKIDDGNNSKPLSPGWTDQTAYNAFGITTGMFNTTTMDDVYNYLFDDEDTPPNPKKEMREYKLVVLGSVGVGKSALTVQFVQGIFVEKYDPTIEDSYRKQVEVDAQQCMLEILDTAGTEQFTAMRDLYMKNGQGFALVYSITAQSTFNDLQDLREQILRVKDTDDVPMILVGNKCDLEDERVVGKEQGQNLARQWNNCAFLESSAKSKINVNEIFYDLVRQINRKTPVPGKARKKSS
B2: the “lacZ expression on coexpression with wild-type Raf(1-257) (in words)” value was “interact strongly”.
